Data reported in patent US20170247475A1 (Boehringer Ingelheim, published 2017).

T1: human PIGF (human, UniProt P49763-2 21-149, limits assumed)
T1 construct: also called hPIGF; PLGF
T1 sequence (looked up): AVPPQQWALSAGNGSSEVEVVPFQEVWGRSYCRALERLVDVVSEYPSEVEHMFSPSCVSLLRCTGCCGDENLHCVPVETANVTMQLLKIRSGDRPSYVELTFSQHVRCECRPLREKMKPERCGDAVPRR

T2: human VEGF-B (human, UniProt P49765-2 22-188, limits assumed)
T2 construct: also called hVEGF-B
T2 sequence (looked up): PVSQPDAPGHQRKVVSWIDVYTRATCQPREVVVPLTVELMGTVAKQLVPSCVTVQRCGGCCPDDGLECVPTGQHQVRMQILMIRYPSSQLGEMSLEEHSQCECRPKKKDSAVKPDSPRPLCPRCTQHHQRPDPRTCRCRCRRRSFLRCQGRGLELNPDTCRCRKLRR

T3: human VEGF-D (human, UniProt O43915 93-201)
T3 construct: also called hVEGF-D
T3 sequence (looked up): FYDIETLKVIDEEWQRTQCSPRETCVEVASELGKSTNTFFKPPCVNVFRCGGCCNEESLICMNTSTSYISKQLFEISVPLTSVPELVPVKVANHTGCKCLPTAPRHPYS

T4: human VEGF-C (human, UniProt P49767 103-227)
T4 construct: also called hVEGF-C
T4 sequence (looked up): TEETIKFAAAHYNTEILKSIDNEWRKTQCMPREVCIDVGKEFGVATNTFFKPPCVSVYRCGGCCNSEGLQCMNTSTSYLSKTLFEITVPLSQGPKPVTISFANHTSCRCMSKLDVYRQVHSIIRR


Columns and labels:
[1] = target: T5, recombinant human VEGF165 (human, UniProt P15692-4 27-191); experiment: hVEGF165/hVEGFR1-Fc competition AlphaScreen
T5 construct: also called hVEGF165; rhVEGF165
Description: Finally, streptavidin donor beads (20 μg/ml) are added and after 1 hour of incubation in the dark, fluorescence is measured on the Envision microplate reader.

human PIGF = target: T1, human PIGF; experiment: solid phase binding ELISA
Description: (§1) Binding to VEGFB, VEGFC, VEGFD and PIGF is assessed via a solid phase binding ELISA. In brief, VEGFB, VEGFC, VEGFD and PIGF (R&D Systems, Minneapolis, Minn., USA) are coated overnight at 4° C. at 1 μg/mL in a 96-well MaxiSorp plate (Nunc, Wiesbaden, Germany). Wells are blocked with a casein solution (1% in PBS). […] As positive controls serial dilutions of the appropriate receptors are taken along and detected with horseradish peroxidase (HRP)-conjugated goat anti-human IgG, Fc specific antibody (Jackson Immuno Research Laboratories Inc., West Grove, Pa., USA) and a subsequent enzymatic reaction in the presence of the substrate TMB (3,3′,5,5′-tetramentylbenzidine) (Pierce, Rockford, Ill., USA).

human VEGF-B = target: T2, human VEGF-B; experiment: solid phase binding ELISA
Description: as §1

human VEGF-D = target: T3, human VEGF-D; experiment: solid phase binding ELISA
Description: as §1

human VEGF-C = target: T4, human VEGF-C; experiment: solid phase binding ELISA
Description: as §1

[2] = target: T5, recombinant human VEGF165; experiment: ka1; SPR Biacore T100, hVEGF165 on chip, Two State Reaction model
Description: (§2) Samples are injected for 2 min and allowed to dissociate up to 20 min at a flow rate of 45 μI/min. In between sample injections, the chip surface is regenerated with 100 mM HCl. HBS-EP+(Hepes buffer pH7.4+EDTA) is used as running buffer. Binding curves are fitted using a Two State Reaction model by Biacore T100 Evaluation Software v2.0.1.
(§3) ^{(a)}Heterogeneous binding curve resulting in no 1:1 fit, curves are fitted using a Two State Reaction model by Biacore T100 Evaluation Software v2.0.1

[3] = target: T5, recombinant human VEGF165; experiment: SPR Biacore T100, hVEGF165 on chip, Two State Reaction model
Description: as §2, §3

[4] = target: T5, recombinant human VEGF165; experiment: AlphaScreen competition, 0.05 nM hVEGF165 and 0.05 nM hVEGFR2-Fc; blocked: hVEGFR2-Fc
[5] = target: T5, recombinant human VEGF165; experiment: kd1; SPR Biacore T100 on hVEGF165
[6] = target: T5, recombinant human VEGF165; experiment: AlphaScreen competition, 0.05 nM hVEGF165 and 0.05 nM hVEGFR2-Fc; blocked: hVEGFR2-Fc; remark: listed apart in the source
[7] = target: T5, recombinant human VEGF165; experiment: competition AlphaScreen, blocking of hVEGF165 binding to hVEGFR1-Fc
[8] = target: T5, recombinant human VEGF165; experiment: AlphaScreen competition, 0.05 nM hVEGF165 and 0.05 nM hVEGFR2-Fc; blocked: hVEGFR2-Fc; remark: listed apart in the source
[9] = target: T5, recombinant human VEGF165; experiment: AlphaScreen competition, 0.05 nM hVEGF165 and 0.05 nM hVEGFR1-Fc; blocked: hVEGFR1-Fc
[10] = target: T5, recombinant human VEGF165; experiment: ka1; SPR Biacore T100 on hVEGF165
[11] = target: T5, recombinant human VEGF165; experiment: AlphaScreen competition, 0.05 nM hVEGF165 and 0.05 nM hVEGFR1-Fc; blocked: hVEGFR1-Fc; remark: listed apart in the source
[12] = target: T5, recombinant human VEGF165; experiment: as above; remark: listed apart in the source
[13] = target: T5, recombinant human VEGF165; experiment: AlphaScreen competition, 0.05 nM hVEGF165 and 0.05 nM hVEGFR2-Fc; blocked: hVEGFR2-Fc; remark: listed apart in the source

T5 sequence (P15692 other isoform, or with tags, fused parts or gaps limits assumed): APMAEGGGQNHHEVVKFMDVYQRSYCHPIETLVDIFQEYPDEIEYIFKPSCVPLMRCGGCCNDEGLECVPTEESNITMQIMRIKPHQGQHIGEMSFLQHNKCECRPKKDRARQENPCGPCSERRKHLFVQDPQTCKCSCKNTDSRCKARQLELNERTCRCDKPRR

| Binder | % inhibition [1] [%] | IC50 [1] [nM] | binding result (human PIGF) | binding result (human VEGF-B) | binding result (human VEGF-D) | binding result (human VEGF-C) | kon [2] [M⁻¹ s⁻¹] | Kd [3] [nM] | kd2 [3] [s⁻¹] | IC50 (read off the curve) [4] [nM] | koff [5] [s⁻¹] | IC50 (read off the curve) [6] [nM] | IC50 (read off the curve) [7] [nM] | IC50 (read off the curve) [8] [nM] | IC50 (read off the curve) [9] [nM] | kon [10] [M⁻¹ s⁻¹] | IC50 (read off the curve) [11] [nM] | IC50 (read off the curve) [12] [nM] | IC50 (read off the curve) [13] [nM] |
| --- | --- | --- | --- | --- | --- | --- | --- | --- | --- | --- | --- | --- | --- | --- | --- | --- | --- | --- | --- |
| VEGFBII23B04 (VHH, also called VEGFBII23B4; VEGFBII23B04 (wt)) VHH: EVQLVESGGGLVQTGDSLRLSCEVSGRTFSSYSMGWFRQAQGKEREFVVAISKGGYKYDSVSLEGRFTISKDNAKNTVYLQINSLKPEDTAVYYCASSRAYGSSRLRLADTYEYWGQGTQVTVSS | 41 | 0.9 | no binding (tested: 500 nM-32 pM) | no binding (tested: 500 nM-32 pM) | no binding (tested: 500 nM-32 pM) | no binding (tested: 500 nM-32 pM) | 210000 | 0.7 | 0.00024 |  |  |  |  |  |  |  |  |  |  |
| VEGFBII038 (VHH, also called VEGFBII0038; VEGFBII00038) VHH: DVQLVESGGGLVQPGGSLRLSCAASGRTFSSYSMGWFRQAPGKEREFVVAISKGGYKYDAVSLEGRFTISRDNAKNTVYLQINSLRPEDTAVYYCASSRAYGSSRLRLADTYEYWGQGTLVTVSS |  |  |  |  |  |  |  |  |  | ~0.4 | 0.013 | ~0.4 | ~0.4 | ~0.2 | ~0.8 | 260000 | ~0.5 | ~0.5 | ~0.2 |
